Source: patent CN112125972A (SINOCELLTECH LTD, dated 2020)

Experiments:
Experiment in all cases: indirect ELISA, VLP coated at 2 μg/mL, antibody at 10 ng/mL
[1] = target: T1, HPV39 VLP (Human papillomavirus type 39, UniProt P24838 1-505)
T1 construct: also called HPV39完整VLP蛋白
T1 sequence: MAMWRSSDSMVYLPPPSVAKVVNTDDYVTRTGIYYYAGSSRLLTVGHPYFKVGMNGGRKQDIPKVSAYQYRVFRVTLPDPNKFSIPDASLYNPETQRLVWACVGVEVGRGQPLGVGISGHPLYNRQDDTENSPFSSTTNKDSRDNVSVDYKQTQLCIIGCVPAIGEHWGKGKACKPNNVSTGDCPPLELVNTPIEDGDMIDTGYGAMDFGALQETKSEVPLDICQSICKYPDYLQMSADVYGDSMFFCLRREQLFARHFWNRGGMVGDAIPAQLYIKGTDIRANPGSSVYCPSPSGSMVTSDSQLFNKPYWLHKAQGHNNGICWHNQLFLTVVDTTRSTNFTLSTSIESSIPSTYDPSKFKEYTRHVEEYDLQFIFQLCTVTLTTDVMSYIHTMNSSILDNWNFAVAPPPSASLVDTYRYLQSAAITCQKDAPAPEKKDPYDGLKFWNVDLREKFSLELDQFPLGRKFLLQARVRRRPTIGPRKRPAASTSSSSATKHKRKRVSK

[2] = target: T2, HPV56 VLP (Human papillomavirus type 56, UniProt P36743 36-534)
T2 construct: also called HPV56完整VLP蛋白
T2 sequence: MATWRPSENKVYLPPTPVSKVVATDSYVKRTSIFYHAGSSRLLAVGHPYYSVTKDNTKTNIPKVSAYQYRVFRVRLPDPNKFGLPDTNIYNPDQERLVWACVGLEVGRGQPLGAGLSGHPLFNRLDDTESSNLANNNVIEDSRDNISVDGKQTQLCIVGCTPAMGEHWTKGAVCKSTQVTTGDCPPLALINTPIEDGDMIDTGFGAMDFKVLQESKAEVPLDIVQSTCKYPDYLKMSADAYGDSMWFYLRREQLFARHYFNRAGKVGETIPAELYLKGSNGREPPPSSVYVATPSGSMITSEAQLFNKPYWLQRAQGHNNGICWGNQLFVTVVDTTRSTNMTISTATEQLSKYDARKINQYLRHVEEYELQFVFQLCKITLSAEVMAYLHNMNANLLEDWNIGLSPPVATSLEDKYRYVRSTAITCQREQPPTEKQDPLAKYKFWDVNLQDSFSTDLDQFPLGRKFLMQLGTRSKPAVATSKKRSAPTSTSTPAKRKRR

[3] = target: T3, HPV35 VLP (Human papillomavirus type 35, UniProt P27232 1-502)
T3 construct: also called HPV35完整VLP蛋白
T3 sequence: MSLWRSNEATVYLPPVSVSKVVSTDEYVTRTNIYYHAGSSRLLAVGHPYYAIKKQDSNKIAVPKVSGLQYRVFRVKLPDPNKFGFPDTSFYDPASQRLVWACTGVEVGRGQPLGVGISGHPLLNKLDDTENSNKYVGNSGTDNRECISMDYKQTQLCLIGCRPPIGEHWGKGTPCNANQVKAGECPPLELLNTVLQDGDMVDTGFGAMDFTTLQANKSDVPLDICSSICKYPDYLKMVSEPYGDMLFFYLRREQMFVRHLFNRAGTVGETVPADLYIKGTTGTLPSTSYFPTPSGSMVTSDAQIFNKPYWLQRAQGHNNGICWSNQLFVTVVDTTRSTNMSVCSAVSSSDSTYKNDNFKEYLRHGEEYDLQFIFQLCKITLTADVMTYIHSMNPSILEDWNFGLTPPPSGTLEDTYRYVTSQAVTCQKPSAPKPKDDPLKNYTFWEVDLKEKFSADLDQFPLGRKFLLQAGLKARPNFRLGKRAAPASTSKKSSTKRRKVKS

[4] = target: T4, HPV45 VLP (Human papillomavirus type 45, UniProt P36741 27-539)
T4 construct: also called HPV45完整VLP蛋白
T4 sequence: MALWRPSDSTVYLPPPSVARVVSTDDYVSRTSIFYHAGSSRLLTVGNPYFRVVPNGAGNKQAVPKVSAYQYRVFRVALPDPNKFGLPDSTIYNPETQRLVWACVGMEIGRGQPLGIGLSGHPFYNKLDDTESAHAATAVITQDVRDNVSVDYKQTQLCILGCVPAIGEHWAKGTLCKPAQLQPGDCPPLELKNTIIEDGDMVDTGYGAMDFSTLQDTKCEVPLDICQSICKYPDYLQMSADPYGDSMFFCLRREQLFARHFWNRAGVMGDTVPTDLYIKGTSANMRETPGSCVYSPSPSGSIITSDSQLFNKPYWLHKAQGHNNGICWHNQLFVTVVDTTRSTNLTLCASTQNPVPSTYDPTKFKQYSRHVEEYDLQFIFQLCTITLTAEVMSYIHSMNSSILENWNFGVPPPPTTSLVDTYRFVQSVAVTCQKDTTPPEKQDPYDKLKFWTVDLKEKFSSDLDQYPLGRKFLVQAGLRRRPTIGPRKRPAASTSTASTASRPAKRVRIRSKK

[5] = target: T5, HPV18 VLP (Human papillomavirus type 18, UniProt P06794 62-568)
T5 construct: also called HPV18完整VLP蛋白
T5 sequence: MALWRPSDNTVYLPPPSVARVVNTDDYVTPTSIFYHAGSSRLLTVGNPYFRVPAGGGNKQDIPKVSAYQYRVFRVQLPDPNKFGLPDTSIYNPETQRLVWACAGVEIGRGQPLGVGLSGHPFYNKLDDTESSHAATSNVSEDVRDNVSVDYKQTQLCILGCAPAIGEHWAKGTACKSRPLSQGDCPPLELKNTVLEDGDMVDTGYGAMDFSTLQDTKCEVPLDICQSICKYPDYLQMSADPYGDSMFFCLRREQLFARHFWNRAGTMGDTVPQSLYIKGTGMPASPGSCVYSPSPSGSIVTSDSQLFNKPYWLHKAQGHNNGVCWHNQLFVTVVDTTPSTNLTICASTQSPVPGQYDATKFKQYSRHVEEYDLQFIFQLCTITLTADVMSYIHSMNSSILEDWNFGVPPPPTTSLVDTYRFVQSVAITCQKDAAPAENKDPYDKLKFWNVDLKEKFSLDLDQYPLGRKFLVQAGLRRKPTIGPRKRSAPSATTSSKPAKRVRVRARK

B1: HPV 16 R001 (antibody, V domains shown)
VH: QSVKESEGRLVTPGTPLTLTCTASGFTMSRYHMTWVRQAPGKGLEWIGIIYARNSDTYYANWAKGRFTISKTSTTVDLKITSPTIEDTATYFCARVDSDSSGAFDRLDLWGQGTLVTVSS
VL: DPMLTQTAASVEVAVGGTVTIKCQASQSIGGYLSWYQQKPGQRPKLLIYRASTLASGVPSRFKGSGSGTEYTLTFSGVECADAAAYYCQQGYTSSDINNAFGGGTEVVVK
notes: An HRP-labelled form served as detection antibody in the sandwich ELISA; also called HPV16.001; 单克隆抗体HPV 16 R001
OD450-blank [1]: 0.004 OD450
OD450-blank [2]: 0.003 OD450
OD450-blank [3]: 0.001 OD450
OD450-blank [4]: 0.002 OD450
OD450-blank [5]: 0 OD450
